Data reported in the nanobody polyreactivity screen of Harvey et al. (2022).

Experiment: yeast display, Sf9 membrane polyspecificity reagent, FACS + sequencing; frameworks hold sequencing errors
Outline: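 In a synthetic yeast display library (Saccharomyces cerevisiae BJ5465), nanobody expression was induced with galactose for 36–48 hours. FACS gates were set low and high (top ~1%) using anti-HA fluorescence for expression and streptavidin fluorescence for binding of the Sf9 membrane reagent. Each polyreactivity label is drawn from the gate of origin.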

Row | Sequence | polyreactivity (PSR sort gate)
1 | QVQLVESGGGLVQAGGSLRLSCAASGSTFVVNAMGWYRQAPGKERELVAAITQSGGSTFYADSVKGRFTISRDNAKNTVYLQMNSLKPEETAVYYWGHGTQVTVSS | low polyreactivity
2 | QVQLVESGGGLVQAGGSLRLSCAASGSTFVVNTMGWYRQAPGKERELVAAITRRTTSTYYADSVKGRFTISRDNAKNTVYLQMNSLKPEDTAVYYCAAERRHYSTTYYYWGQGTQVTVSS | high polyreactivity
3 | QVQLVESGGGLVQAGGSLRLSCAASGSTFVWYAMGWYRQAPGKEREFVAAITSDGGSTYYADSVKGRFTISRDNAKNTVYLQLNSLKPEDTAVYYCAADYYSLASGWYYYWGQGTQVTVSS | high polyreactivity
4 | QVQLVESGGGLVQAGGSLRLSCAASGSTFVWYAMGWYRQAPGKEREFVATISWSGDSTYYADSVKGRFTISRDNAKNTVYLQMNSLKPEDTAVYYCATAVYLVIFEYDYWGQGSQVTVSS | low polyreactivity
5 | QVQLVESGGGLVQAGGSLRLSCAASGSTFVWYGMGWYRQAPGKEREFVAAISTSGGRTYYADSVKGRFTISRDNAKNTVYLQMNSLKPEDTAVYYCATRPYFTYRWYDYWGQGTQVTVSS | high polyreactivity
6 | QVQLVESGGGLVQAGGSLRLSCAASGSTFVYNAMGWYRQAPGKERELVAAISRRGGSTYYADSVKGRFTISRDNAKNTVYLQMNSLKPEDTAVYYCATDRVQDSYYWGQGTQVTVSS | high polyreactivity
7 | QVQLVESGGGLVQAGGSLRLSCAASGSTFVYNAMGWYRQAPGKERELVAAISTGGSTYYADSVKGRFTISRDNAKNTVYLQMNSLKPEDNAVYYCAAKQRTTLYDYWGQGTQVTVSS | high polyreactivity
8 | QVQLVESGGGLVQAGGSLRLSCAASGSTFVYNTMGWYRQAPGKERELVASISSDGNTYYADSVKGRFTISRDNAKNTVYLQMNSLKPEDTAVYYCAARYYYDWRFVGYDYWGQGTQVTVSS | low polyreactivity
9 | QVQLVESGGGLVQAGGSLRLSCAASGSTFVYYAMGWSRQAPGKERELVAAIKRSGTRTYYADSVKGRFTISRDNAKNTVYLQMNSLKPEDTAVYYCANAVQGKYGYWGQGTQVTVSS | high polyreactivity
10 | QVQLVESGGGLVQAGGSLRLSCAASGSTFVYYAMGWYRQAPGKERELVAAISTSAGSTYYADSVKGRFTISRDNAKNTVYLQMNSLKPEDTAVYYCAASRKRRRYGSISGGYWGQGTQVTVSS | high polyreactivity
11 | QVQLVESGGGLVQAGGSLRLSCAASGSTFVYYAMGWYRQAPGKERELVAAITGSVDSTYYADSVKGRFTISRDNAKNTVYLQMNSLNPEDTAVYYCAAVTYSTYWGQGTQVTVSS | low polyreactivity
12 | QVQLVESGGGLVQAGGSLRLSCAASGSTFVYYAMGWYRQAPGKERELVAAITSGDSTYYADSVKGRFTISRDNAKNTVYLQMNSLKPEDTAVYYCAKRGGYKWIYGYWGQGTQVTVSS | low polyreactivity
13 | QVQLVESGGGLVQAGGSLRLSCAASGSTFVYYAMGWYRQAPGKETEFVAAISISSGSTYYADSVKGRFTISRDNAKNTVYLQMNSLKPEDTAVYYCAVDWFLGGYDDLDYWGQGTQVTVSS | low polyreactivity
14 | QVQLVESGGGLVQAGGSLRLSCAASGSTFWANALGWYRQAPGKERELVAGITWNAGSTYYADSVKGRFTISRDNAKNTVYLQMNSLKPEDTGVYYCAAYYHFQGWGPGYNSWGQGTQVTVSS | low polyreactivity
15 | QVQLVESGGGLVQAGGSLRLSCAASGSTFWANAMGWYRQAPGKEREIVATISWSDGSTYYAASVKGRFTISRDNAKNTVYLQRNSLNPEDTAVYYCASDVVRFFTYKYDDWGQGTQVTVSS | low polyreactivity
16 | QVQLVESGGGLVQAGGSLRLSCAASGSTFWANAMGWYRQAPGKERELVAAITTSGASTYYADSVKGRFTISRDNAKNTVYLQMNSLKPEDTAVYYCAADYDSYYWYNYWGQGTQVTVSS | low polyreactivity
17 | QVQLVESGGGLVQAGGSLRLSCAASGSTFWEYAMGWYRQGPGTERELVAAISSSGGSTYYADSVKGRFTISRDNAKNTVYLQMNSLKPEDTAVYYCAARYSWRRAGYYYWGQGTQVTVSS | high polyreactivity
18 | QVQLVESGGGLVQAGGSLRLSCAASGSTFWFNAMGWYRQAPGKERELVAAISSTGSTNYADSVKGRFTISRDNSKNTVYLQMNSLKPEDTAVYYCATQEGPHKLDPRGYYWGQGTQVTVSS | low polyreactivity
19 | QVQLVESGGGLVQAGGSLRLSCAASGSTFWFNGMGWYRQAPGKERELVAVITFSTGSTSYADSVKGRCTISRDDAKNTVYLQMNSLKPEDTAVYYCAAEYVIYYWFEWLDLDYWGQGTQVTVSS | high polyreactivity
20 | QVQLVESGGGLVQAGGSLRLSCAASGSTFWFYTMGWYRQAPGKERELVATITSGGSTNYADSVKGRFTISRDNAKNTVYLQMNSLKPEDTAVYYCAASSVLTNHDYWGQGTQVTVSS | low polyreactivity
21 | QVQLVESGGGLVQAGGSLRLSCAASGSTFWINAMGWYRQAPGKERELVADISHSAGNTYYADSVKGRFTISRDNAKNTVYLQMNSLKPEDTAVYYCAARRWGVRSGDYYWGQGTQVTVSS | low polyreactivity
22 | QVQLVESGGGLVQAGGSLRLSCAASGSTFWKYVMGWYRQAPGKERELVAAIDTGASTNYADSVKGRFTISRDNAKYTVYLQMNSLKPEDTAVYFCNAELWYGPDELTGDYWGQGTQVTVSS | low polyreactivity

Row | Sequence | polyreactivity (PSR sort gate)
23 | QVQLVESGGGLVQAGGSLRLSCAASGSTFWLYAMGWYRQAPGKERELVAAIRSGDRTNYADSVKGRFTISRDNAKNTVYLQMNSLKPEDTAVYYCAAVAYLNWTPHYYWGQGTQVTVSS | low polyreactivity
24 | QVQLVESGGGLVQAGGSLRLSCAASGSTFWPYAMGWYRQAPGKERELVAAISSSGGSTYYADSVKGRFTISRDNAKNTVYLQMNSLKPEDTAVYYCNKDYHRPYGGGSKGDYWGQGTLVTVSS | low polyreactivity
25 | QVQLVESGGGLVQAGGSLRLSCAASGSTFWPYAMGWYRQAPGKERELVARINSGGNTNYADSVKGRFTISRDNAKNTVYLQMNSLKPEDTAVYYCAVRSLYEPRVYYRWVVGDGNYWGQGTQLTVSS | low polyreactivity
26 | QVQLVESGGGLVQAGGSLRLSCAASGSTFWPYAMGWYRQAPGKEREMVAAITWRGGRTYYADTVKGRFTISRDNAQNTVYLQMNSLKPEDTAVSYCNTGPWSRSWSQKYEYWGQGTQVTVSS | high polyreactivity
27 | QVQLVESGGGLVQAGGSLRLSCAASGSTFWPYTMGWYSQAPGKERELVAAISLSGGSTYYADSVKGRFTISRDIAKNTVYLQMNSLKPEDTAVYYCAAEGGYQNWHYLYDYWGQGTQVTVSS | low polyreactivity
28 | QVQLVESGGGLVQAGGSLRLSCAASGSTFWSYTMGWYRPAPGKERELVARIRTTGGSTYADSVKGRFTISRDNAKNTVYLQMNSLKPEDTAVYDCAKEGWLRYYPWYGGDYWGQGTLVTVSS | high polyreactivity
29 | QVQLVESGGGLVQAGGSLRLSCAASGSTFWTNAMGWYRQAPGKERELVAGITDTDNHELRRLCEGRFTISRDNAKNTVYVQMNSLKPEDTAVYYCNADDTYYPLGGITGYDYWGQGTQVTVSS | low polyreactivity
30 | QVQLVESGGGLVQAGGSLRLSCAASGSTFWVYTMGWYRQAPGKEREFVAAISSGVGSTHYADSVKGRFTLSRDNAKNTVYLNMNSLKPEDTAVYYCAAESYYVYLGWLEYWGQGTQVTVSS | high polyreactivity
31 | QVQLVESGGGLVQAGGSLRLSCAASGSTFWWYAMGWYRQAPGKERELVATISWSTGSTYYADSVKGRFTISRDNAKNTVYLQMNSLKPEDTAVYYCNARIFYLFPGNSWSSSDYDYWGQGTQVTVSS | low polyreactivity
32 | QVQLVESGGGLVQAGGSLRLSCAASGSTFWYNAMGWYRPAPGKERELVAAITWSGGSTYYADSVKGRFTISRDNAKNTVYLQMNSLKPEDTAVYYCAADHSAYSVFSGYKYGYWGQGTQVTVSS | low polyreactivity
33 | QVQLVESGGGLVQAGGSLRLSCAASGSTFWYNGMGWYRQAPGKERELVAAINWSGDSTYYADSVKGRFTISRDNAKNTVYLQMNSLKPEDTAVFYCAGGYYTYSRRSSFFVAYGYWGLGTQVTVSS | low polyreactivity
34 | QVQLVESGGGLVQAGGSLRLSCAASGSTFWYSDMGWYRQARGKDRELVAAISGSGGRTYYADSVKGRFTISRDNAKNTVYIQMNSLKPEDTAVYYCAADDYWSADFKYNYWGQGTQVTVSS | low polyreactivity
35 | QVQLVESGGGLVQAGGSLRLSCAASGSTFWYYAMGWYRQAPGKERELVAAITSSGSTYYADSVKGRFTISRDNAKNTVYLQMNRLKPEDTAVYYCAAEQWYCYGSYDYWGQVTQVTVSS | high polyreactivity
36 | QVQLVESGGGLVQAGGSLRLSCAASGSTFWYYAMGWYRQAPGKERELVAAITTGGDTTNYADSVKGRFTISRDNAKNNVYLQMNSLKPADTAVYYCARDTGYDLIVLPDDSWGQGTQVTVSS | low polyreactivity
37 | QVQLVESGGGLVQAGGSLRLSCAASGSTFYANAMGWYRQAPGKERELVAAISWRGGSTYYADSVKGRFTISRDNAKNTVYLQMNSLKPEDTAVYYCNRVQRYIRHGDYWGQGTQVTVSS | high polyreactivity
38 | QVQLVESGGGLVQAGGSLRLSCAASGSTFYAYAMGWYRQAPGKERELVAAIDSGGSTYYADSVKGRFTISRDNAKNTVYLQMNSLKPEDTAVYYCAVRHRYTRAYWGRVYWGQGTQVTVSS | low polyreactivity
39 | QVQLVESGGGLVQAGGSLRLSCAASGSTFYAYDMGWYRQAPGKEREWVAAISRSGGNTYYADSVKGRFTISRDYAKNTVYLQMNSQKPEDTAVYYCNARSSVYGHRKGSARIPRYDYWGQGTQVTVSS | high polyreactivity
40 | QVQLVESGGGLVQAGGSLRLSCAASGSTFYDYAMGWYRQAPGKERELVASIDSGDSTNYADSVKGRFTISRDNAKNTVYLQMNSLKPEDTAVYYCAADYQNTGARYWYYYWGQGTQVTVSS | low polyreactivity
41 | QVQLVESGGGLVQAGGSLRLSCAASGSTFYFNAMGGYRQSPGKERELVAVIDGSGGFTYYADSVKGRFTISRDNAKNTVYLQMNSLKQEVTAVYDCNADLVYNTFLYSGGDEYDYWGQGTQVTVSS | high polyreactivity
42 | QVQLVESGGGLVQAGGSLRLSCAASGSTFYFNAMGWSRQAPGKERELVAGISSGGSTYYADSVKGRFTISRDNAKNTVYLQMNSLKPEDTAVYYCAATWLVERPVSYTEYGYWGQGTQVTVSS | low polyreactivity
43 | QVQLVESGGGLVQAGGSLRLSCAASGSTFYFNAMGWYRQAPGKERELVAGIRYSGSSTYYADSVKGRFTISRDNAKNTVYLQMNSLKPEDTAVYYCAARYSVYPRVSKYSYRFNYWGQGNQVTVSS | high polyreactivity
